Data from publication PMC3005221.
Each block holds one substance with its values, some of them ahead of it.

Legend:
[1] = target: GST (Schistosoma japonicum) [GST: P08515]; conditions: cited from earlier work
FITC-β-Ala-β-Ala-LQDGF = assay: fluorescence polarisation
[2] = target: FITC-β-Ala-β-Ala-ALRGG (human); assay: fluorescence polarisation
FITC-β-Ala-β-Ala-FDGFM = assay: fluorescence polarisation
FITC-β-Ala-β-Ala-IAKGG = assay: fluorescence polarisation
FITC-β-Ala-β-Ala-NALGG = assay: fluorescence polarisation
[3] = target: FITC-β-Ala-β-Ala-RARGG (human); assay: fluorescence polarisation
[4] = target: FITC-β-Ala-β-Ala-RGMGG (human); assay: fluorescence polarisation
[5] = target: FITC-β-Ala-β-Ala-RLRGG (human); assay: fluorescence polarisation
[6] = target: FITC-β-Ala-β-Ala-STLGG (human); assay: fluorescence polarisation
[7] = target: FITC-β-Ala-β-Ala-YGFGG (human); assay: fluorescence polarisation
ubiquitin (Homo sapiens) = ubiquitin (Homo sapiens) (UniProt P0CG48); conditions: cited from earlier work
[8] = target: ubiquitin C-terminal five-residue peptide (Homo sapiens); conditions: cited from earlier work

Sequence of Ubp-M BUZ (Q9Y5T5 22-142): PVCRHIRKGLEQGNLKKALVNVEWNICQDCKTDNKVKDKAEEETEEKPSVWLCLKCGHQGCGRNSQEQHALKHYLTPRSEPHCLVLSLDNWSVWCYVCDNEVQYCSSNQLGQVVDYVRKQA
Sequence of HDAC6 BUZ (Q9UBN7 1111-1209): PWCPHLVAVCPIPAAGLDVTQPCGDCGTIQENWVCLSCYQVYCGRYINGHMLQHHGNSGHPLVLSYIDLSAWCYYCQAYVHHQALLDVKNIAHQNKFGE

Substance: GST (from UniProt P08515)
Kd [1]: 0.33 µM

Kd (FITC-β-Ala-β-Ala-LQDGF): 4.6 µM
Substance: GST-Abl2 SH2 domain fusion protein (from UniProt P42684 173-263) (domain or fragment)

Kd [2]: 2.5 µM
Kd (FITC-β-Ala-β-Ala-FDGFM): 10.8 µM
Kd (FITC-β-Ala-β-Ala-IAKGG): 8.8 µM
Kd (FITC-β-Ala-β-Ala-LQDGF): 4 µM
Kd (FITC-β-Ala-β-Ala-NALGG): 0.79 µM
Kd [3]: 0.47 µM
Kd [4]: 1.3 µM
Kd [5]: 0.34 µM
Kd [6]: 3.7 µM
Kd [7]: 6.2 µM
Substance: GST-HDAC6 BUZ (from UniProt Q9UBN7 1059-1215) (domain or fragment)

Substance: HDAC6 BUZ (from UniProt Q9UBN7)
Kd (ubiquitin (Homo sapiens)): 0.06 µM

Substance: Ubp-M BUZ (from UniProt Q9Y5T5)
Kd [8]: 15.9 µM
